Where no end group is shown, it is not given here. Side-chain parts run from the residue outwards. [ ]: non-standard residue; d: D form. SMPH = maleimide crosslinker coupling C-terminal Cys to BSA; pGlu = O=C1CC[C@@H](C(=O)O)N1
Tests used:
Aβ 4-40 [1] = target: T1, Aβ 4-40; test: N3pE sandwich ELISA (4G8 capture, 6-1-6 detection), peptide at 100 pg/ml
T1 construct: No entry of its own

Aβ 1-42 [2] = test: as above
Aβ pE11-40 [3] = target: T2, Aβ pE11-40 (N-terminal Glu (position 11 of Aβ) cyclized to pyroglutamate); test: as above
T2 construct: No entry of its own
T2 peptide: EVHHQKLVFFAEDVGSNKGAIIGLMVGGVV

Aβ 4-40 [4] = target: T1, Aβ 4-40; test: N3pE sandwich ELISA (4G8 capture, 6-1-6 detection), peptide at 50 pg/ml
Aβ 1-42 [5] = test: as above
Aβ pE11-40 [6] = target: T2, Aβ pE11-40; test: as above
Aβ N3pE-40 peptide [7] = target: T3, Aβ N3pE-40 peptide (N-terminal Glu (position 3 of Aβ) cyclized to pyroglutamate); test: SPR Biacore 3000, AβpE3-40 on CM5 chip, antibody 1-100 nM, bivalent analyte model
T3 construct: Synthetic peptide; also called AβpE3-40; amyloid β N3pE-40

N3E-BSA = test: IgG ELISA, hybridoma supernatant on peptide-BSA coat
[8] = target: T4, BSA-pGlu-6166 peptide (pGlu-FRHDSGC conjugated to bovine serum albumin); test: as above
T4 construct: also called N3pE-BSA
T4 peptide: [pGlu]FRHDSGC([SMPH-BSA])

isoDAE-BSA = test: as above
N11E-BSA = test: as above
N11pE-BSA = test: as above
Aβ N3pE-40 peptide [9] = target: T3, Aβ N3pE-40 peptide; test: Biacore, peptide on CM5 chip, hybridoma supernatants
Aβ N3pE-40 peptide [10] = target: T3, Aβ N3pE-40 peptide; test: DotBlot
Aβ pE11-40 [11] = target: T2, Aβ pE11-40; test: N3pE sandwich ELISA (4G8 capture, 6-1-6 detection), peptide at 25 pg/ml
Aβ 4-40 [12] = target: T1, Aβ 4-40; test: N3pE sandwich ELISA (4G8 capture, 6-1-6 detection), peptide at 400 pg/ml
Aβ 1-42 [13] = test: as above
Aβ pE11-40 [14] = target: T2, Aβ pE11-40; test: as above
Aβ N3pE-40 peptide [15] = target: T3, Aβ N3pE-40 peptide; test: N3pE sandwich ELISA (4G8 capture, 6-1-6 detection), 3.125 pg/ml peptide
Aβ 4-40 [16] = target: T1, Aβ 4-40; test: N3pE sandwich ELISA (4G8 capture, 6-1-6 detection), peptide at 200 pg/ml
Aβ 1-42 [17] = test: as above
Aβ pE11-40 [18] = target: T2, Aβ pE11-40; test: as above
Gonadoliberin = target: T5, Gonadoliberin (human, UniProt P01148 24-33, N-terminal pyroglutamate (pGlu peptide)); test: SPR (Biacore 3000), peptide on CM5 chip, antibody 25 µg/ml
T5 construct: Whole peptide or N-terminal region
T5 peptide (looked up): QHWSYGLRPG

MCP-2 = target: T6, MCP-2 (human, UniProt P80075 24-99, limits assumed, N-terminal pyroglutamate (pGlu peptide)); test: as above
T6 construct: Whole peptide or N-terminal region
T6 sequence (peptide, looked up): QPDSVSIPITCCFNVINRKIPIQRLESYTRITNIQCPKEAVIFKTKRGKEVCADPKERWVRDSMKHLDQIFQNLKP

Collagen 1 = target: T7, Collagen 1 (human); test: as above
T7 construct: Whole protein or N-terminal region, and which collagen chain

MCP-1 = MCP-1 (human, UniProt P13500 24-99, limits assumed, N-terminal pyroglutamate (pGlu peptide)); test: as above
Neurotensin = target: T8, Neurotensin (human, UniProt P30990 151-163, N-terminal pyroglutamate (pGlu peptide)); test: as above
T8 construct: Whole peptide or N-terminal region

Orexin A = target: T9, Orexin A (human, UniProt O43612 34-66, limits assumed, N-terminal pyroglutamate (pGlu peptide)); test: as above
T9 construct: Whole peptide or N-terminal region
T9 peptide (looked up): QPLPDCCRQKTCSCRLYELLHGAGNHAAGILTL

Big Gastrin = target: T10, Big Gastrin (human, UniProt P01350 59-92, limits assumed, N-terminal pyroglutamate (pGlu peptide)); test: as above
T10 construct: Whole peptide or N-terminal region
T10 peptide (looked up): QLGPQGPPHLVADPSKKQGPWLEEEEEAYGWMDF

B1: Aβ 6-1-6 (monoclonal antibody of hybridoma cell line 6-1-6, DSM ACC 2924) (antibody, V domains shown)
VH: EVQLQQSGPELVKPGASMKISCKASGYSFTGYTMNWVKQSHGKNLEWIGLINPYNGVTRYNQKFKGKATLIVDKSSSTAYMELLSLTSEDSAVYYCTREAKREWDETYWGQGTLVTVSA
VL: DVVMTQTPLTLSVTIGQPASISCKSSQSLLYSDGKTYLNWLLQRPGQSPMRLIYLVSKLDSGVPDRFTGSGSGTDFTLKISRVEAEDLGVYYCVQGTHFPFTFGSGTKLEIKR
notes: Mouse hybridoma IgG; The entries as printed begin with a leader and end with the first residues of the constant region; Heavy chain amplified with primer MHCG1, light chain with MKC; also called clone 6-1-6; N3pE antibody clone 6-1-6
absorbance (450 nm corrected by 540 nm) (Aβ 4-40 [1]): 0.045 absorbance | absorbance (450 nm corrected by 540 nm) (Aβ 1-42 [2]): 0.047 absorbance | absorbance (450 nm corrected by 540 nm) (Aβ pE11-40 [3]): 0.048 absorbance | absorbance (450 nm corrected by 540 nm) (Aβ 4-40 [4]): 0.044 absorbance | absorbance (450 nm corrected by 540 nm) (Aβ 1-42 [5]): 0.05 absorbance | absorbance (450 nm corrected by 540 nm) (Aβ pE11-40 [6]): 0.045 absorbance | Kd (Aβ N3pE-40 peptide [7]): 1.57 nM | koff (Aβ N3pE-40 peptide [7]): 0.000263 s⁻¹ | kon (Aβ N3pE-40 peptide [7]): 167000 M⁻¹ s⁻¹ | signal in ELISA (OD) (N3E-BSA): 0.125 OD 405 nm | signal in ELISA (OD) [8]: 1.38 OD 405 nm | signal in ELISA (OD) (isoDAE-BSA): 0.013 OD 405 nm | signal in ELISA (OD) (N11E-BSA): 0.007 OD 405 nm | signal in ELISA (OD) (N11pE-BSA): 0.014 OD 405 nm | association, fold of clone 12-1 (Aβ N3pE-40 peptide [9]): ~5 fold | fold sensitivity against clone 12-1 (Aβ N3pE-40 peptide [10]): 125 fold | absorbance (450 nm corrected by 540 nm) (Aβ pE11-40 [11]): 0.048 absorbance | absorbance (450 nm corrected by 540 nm) (Aβ 4-40 [12]): 0.044 absorbance | absorbance (450 nm corrected by 540 nm) (Aβ 1-42 [13]): 0.048 absorbance | absorbance (450 nm corrected by 540 nm) (Aβ pE11-40 [14]): 0.044 absorbance | signal-to-noise ratio at the LOQ (Aβ N3pE-40 peptide [15]): 1.3 | absorbance (450 nm corrected by 540 nm) (Aβ 4-40 [16]): 0.046 absorbance | absorbance (450 nm corrected by 540 nm) (Aβ 1-42 [17]): 0.048 absorbance | absorbance (450 nm corrected by 540 nm) (Aβ pE11-40 [18]): 0.048 absorbance | % cross reactivity (against AβpE3-40) (Gonadoliberin): < 1% | % cross reactivity (against AβpE3-40) (MCP-2): < 1% | % cross reactivity (against AβpE3-40) (Collagen 1): < 1% | % cross reactivity (against AβpE3-40) (MCP-1): < 1% | % cross reactivity (against AβpE3-40) (Neurotensin): < 1% | % cross reactivity (against AβpE3-40) (Orexin A): < 1% | % cross reactivity (against AβpE3-40) (Big Gastrin): < 1%
